The supplement of paper PMC10567573

B1: MTMR15 (parent)
chain: YVKAKKSIDKDEEFAGSSPQSSKS
B2: EMD (parent)
chain: YQSKGYNDDYYEESYFTTRTYGEP

Variants of: B1
Experiment: protein stability index of a GFP-peptide fusion (GPS, HEK-293T) (PSI 1-6); higher = more stable
Details: c terminus: a fixed tail appended
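Further: lentivirally expressed fusions sorted by FACS into six bins by GFP to DsRed ratio, PSI derived from sequencing read proportions per bin multiplied by bin number.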

Protein stability index, by site and new letter:
A15: I 3.25; T 3.08; H 3.38; K 2.9; M 2.44; P 3.06; G 3.45; N 2.67; Y 2.14; R 2.87
E13: C 2.05; R 2.77; Q 3.07; K 2.56; T 2.7; N 2.43; P 2.81; V 2.31; G 2.82; I 2.05; S 2.78; Y 2.71; W 1.94; F 2.09
S22: R 3.59; C 3.08; G 2.97; Y 2.78; K 1.92; A 3.1; F 2.89; N 2.83; Q 2.6; L 2.77; M 3.06; H 2.77; V 3.36; W 2.27; P 3.22; I 3.18
I8: F 2.81; Y 2.99; G 3.64; N 3.33; K 2.98; S 3.55; A 3.18; E 3.42; P 3.77; H 3.28
A4: C 2.97; E 3.54; L 3.04; I 3.24; Y 3.55; S 2.45; R 3.32; N 2.99; K 4.12; H 3.51; G 3.42; Q 3.41; D 3.27
Y1: M 5.01; A 5.37; K 5.15; S 5.49; W 4.66; V 5.29; R 5.62; G 5.7; E 5.82; P 5.19
K5: E 4.21; F 2.44; S 3.12; V 3.47; W 1.6; L 2.15; G 2.9; D 4.22; I 2.29; A 3; P 2.31; C 2.74; Q 3.83; T 3.31; M 2.6
Q20: T 3.4; H 3.2; S 2.9; K 3.24; I 2.51; P 2.75; L 3; Y 2.62; W 3.13
S18: E 3.48; Q 2.93; C 2.75; G 3.26; V 3.38; Y 2.86; M 2.59; L 2.85; N 3.9; K 3.04; I 3.66; F 2.67
S7: Q 2.91; D 2.77; N 2.98; R 3.22; P 3.41; W 2.27; A 3.15; Y 2.08; C 3.33; I 3.01; K 3.38; V 3.13; F 3.06; T 2.96
K6: Y 2.78; P 3.05; C 2.54; M 3.16; N 3.25; W 2.7; Q 3.33; S 2.84; D 3.87; I 2.67
S24: K 2.58; H 3.33; V 2.33; I 3.19; Q 3; T 2.85; E 3.55
D9: N 2.61; W 1.61; I 2.73; L 2.76; Q 2.76; C 2.98; G 2.95; Y 2.44; V 2.77; P 2.83; K 2.45; S 2.69; M 3.01; A 2.92; F 1.92
F14: K 3.29; I 3.59; N 3.49; P 3.74; W 2.67; D 3.45; R 3.25; Q 2.89; C 3.43; G 3.35
K23: H 3.33; L 3; Y 2.76; S 3.08; A 3.44; Q 3.32; V 3.85; G 3.06; R 3.4; N 3.41; P 3.94
K10: P 3.55; N 2.92; A 3.63; V 3.24; G 3.28; H 3.61; D 3.42; Q 2.67; M 3.36; L 3.05; R 3.25; C 3.27
G16: K 3.11; P 3.36; D 3.54; Y 2.19; W 3.45; E 3.36; L 2.85; F 2.03; A 3.07; S 3.64; N 2.98
K3: Q 3.31; R 2.4; C 3.3; T 2.84; I 3.38; D 3.96; E 3.48; H 3.22; S 2.76; Y 2.61; L 3.05
D11: I 2.57; P 2.56; L 2.46; W 2.31; V 2.72; A 2.83; C 2.71; K 2.64; M 2.56
V2: T 5.08; M 4.91; P 4.76; Y 5.39; W 4.5; L 4.84; S 5.38; C 4.52; E 5.56; N 5.16; D 5.5
E12: S 2.92; A 2.94; N 2.64; R 2.6; K 2.7; V 2.3; Q 2.98; Y 1.93; F 2.37
S21: N 3.25; W 2.41; E 3.3; P 2.95; Y 2.98; Q 3.34; I 2.67; T 3.1; L 2.86; F 3.03
P19: H 3.25; N 3.09; M 3.42; A 3.19; V 2.21; T 3.5
S17: Y 1.92; C 3.01; P 2.79; W 4.48; T 3.29; A 2.8; F 1.79; K 3.21; Q 2.93; R 2.91; H 3.07

Variants of: B2
Experiment: as above
Details: c terminus: a fixed tail appended

Protein stability index: each site, then its substitutions
Y1: A 3.8; C 3.02; D 4.46; E 4.2; F 1.97; G 3.8; H 3.76; I 3.2; K 3.63; L 2.92; M 3.22; N 3.9; P 3.63; Q 4.15; R 3.48; S 3.67; T 3.7; V 3.67; W 2.61
Q2: A 2.15; C 2.12; D 3.5; E 3.62; F 1.93; G 2.53; H 2.03; I 1.93; K 3.13; L 2.5; M 2.36; N 3.11; P 2.29; R 2.54; S 2.65; T 1.99; V 1.9; W 1.59; Y 2.01
S3: A 2.23; C 1.95; D 3.31; E 3.25; F 2.25; G 2.18; H 2.42; I 2.14; K 2.75; L 2.17; M 2.38; N 2.45; P 2.72; Q 2.43; R 2.75; T 2.54; V 1.95; W 1.72; Y 2.47
K4: A 2.36; C 2.63; D 3.33; E 3.46; F 1.69; G 2.12; H 1.97; I 1.98; L 2.06; M 2.32; N 2.36
